# Experimental data from article PMC11849630.
# Target: eGFP-tagged htau 441 ΔK280 mutant (eGFP-tau ΔK280) (human) (UniProt P10636)
# Assay: fluorescence correlation spectroscopy (FCS/FCCS) in live cells; HEK293T cells overexpressing fluorescent-protein-fused tau; diffusion coefficient fitted (3D normal diffusion), mass by Stokes-Einstein, calibrated with eGFP-mCherry fusion; only tau not bound to microtubules
substance,measurement,value
eGFP-tagged htau 441 ΔK280 mutant (eGFP-tau ΔK280) (from UniProt P10636-8 1-441) (natural protein),stoichiometry N,19
